Reference: the RNAGym collection of RNA variant scans (doi:10.7554/elife.90254)

B1: LINE1-full (parent)
chain: UACGUAGGUGGUUUUCCCCUGAUAGUGCUAAGGGGGCCUGGAAGUUUGGACUGGGCAGAGCUCAACACAGCGUGGCAAAGUGGCUGUGGCUAGACUGCCUCUCUGGAUUCCUCGUCACUCAGCAGGGCAUCUCUGAGAGAAAUGCC

Variants of: B1
Test: self-cleavage, relative activity (ratio to wild type); higher = more cleavage; in vitro, sequencing; the parent is a self-cleaving ribozyme
Variant UACGUAGGUGGUUUUCCCCUGAUAGUGCUAAGGUGGCCUGGAAGUUUAGACUGGGCAGAGCUCAACACAGCGUGGCAAAGUGGCUGUGGCUAGACUGCCUCUCUGGAUUCCUCGUCACUCAGCAGGGCAUCUCUGAGAGAAAUGCC [G34U G48A] has a self-cleavage of 1.49.
For UACGUAGGUGGUUUUCCCCUGAUAGUGCUAAGGUGGCCUGGAUGUUUGGACUGGGCAGAGCUCAACACAGCGUGGCAAAGUGGCUGUGGCUAGACUGCCUCUCUGGAUUCCUCGUCACUCAGCAGGGCAUCUCUGAGAGAAAUGCC [G34U A43U], the self-cleavage was 0.97.
For UACGUAGGUGGUUUUCCCCUGAUAGUGCUAAGGUGGCCUGGAGGUUUGGACUGGGCAGAGCUCAACACAGCGUGGCAAAGUGGCUGUGGCUAGACUGCCUCUCUGGAUUCCUCGUCACUCAGCAGGGCAUCUCUGAGAGAAAUGCC [G34U A43G], the self-cleavage was 1.06.
Work on UACGUAGGUGGUUUUCCCCUGAUAGUGCUAAGGUGGCCUGGAAGUUUGGACUGGGCAGAGCUCGACACAGCGUGGCAAAGUGGCUGUGGCUAGACUGCCUCUCUGGAUUCCUCGUCACUCAGCAGGGCAUCUCUGAGAGAAAUGCC [G34U A64G] yielded a self-cleavage of 0.36.
Variant UACGUAGGUGGUUUUCCCCUGAUAGUGCUAAGGCGGCCCGGAAGUUUGGACUGGGCAGAGCUCAACACAGCGUGGCAAAGUGGCUGUGGCUAGACUGCCUCUCUGGAUUCCUCGUCACUCAGCAGGGCAUCUCUGAGAGAAAUGCC [G34C U39C] has a self-cleavage of 1.65.
UACGUAGGUGGUUUUCCCCUGAUAGUGCUAAGGCGGCCUGGAAGUUUGGACUGGGCAGAGCACAACACAGCGUGGCAAAGUGGCUGUGGCUAGACUGCCUCUCUGGAUUCCUCGUCACUCAGCAGGGCAUCUCUGAGAGAAAUGCC [G34C U62A] gave a self-cleavage of 0.04.
Work on UACGUAGGUGGUUUUCCCCUGAUAGUGCUAAGGUGGCCUGGAAGUUUGGACUGGGCAGAGCUCAACACAGCGUGGCAAAGUGGCUGUGGCUAGACUGCCUCUCUGGAUUCCUCGUCACUCAGCAGGGCAUCUCUGAGAGAGAUGCC [G34U A141G] yielded a self-cleavage of 1.56.
Variant UACGUAGGUGGUUUUCCCCUGAUAGUGCUAAGGUGGCCAGGAAGUUUGGACUGGGCAGAGCUCAACACAGCGUGGCAAAGUGGCUGUGGCUAGACUGCCUCUCUGGAUUCCUCGUCACUCAGCAGGGCAUCUCUGAGAGAAAUGCC [G34U U39A] has a self-cleavage of 1.89.
Work on UACGUAGGUGGUUUUCCCCUGAUAGUGCUAAGGCGGCCUGGAAGUUAGGACUGGGCAGAGCUCAACACAGCGUGGCAAAGUGGCUGUGGCUAGACUGCCUCUCUGGAUUCCUCGUCACUCAGCAGGGCAUCUCUGAGAGAAAUGCC [G34C U47A] yielded a self-cleavage of 0.64.
In the case of UACGUAGGUGGUUUUCCCCUGAUAGUGCUAAGGCGGCCUGGAAGUUCGGACUGGGCAGAGCUCAACACAGCGUGGCAAAGUGGCUGUGGCUAGACUGCCUCUCUGGAUUCCUCGUCACUCAGCAGGGCAUCUCUGAGAGAAAUGCC [G34C U47C], the self-cleavage is reported as 1.79.
For UACGUAGGUGGUUUUCCCCUGAUAGUGCUAAGGUGGCCUGGAAGUUUGGACUGGGCAGAGCUCAGCACAGCGUGGCAAAGUGGCUGUGGCUAGACUGCCUCUCUGGAUUCCUCGUCACUCAGCAGGGCAUCUCUGAGAGAAAUGCC [G34U A65G], the self-cleavage was 0.02.
With UACGUAGGUGGUUUUCCCCUGAUAGUGCUAAGGUGGCCUGGAAGUUUGGACUGGGCAGAGCUCAACACAGCGUGGCAAGGUGGCUGUGGCUAGACUGCCUCUCUGGAUUCCUCGUCACUCAGCAGGGCAUCUCUGAGAGAAAUGCC [G34U A79G] the self-cleavage was 0.55.
UACGUAGGUGGUUUUCCCCUGAUAGUGCUAAGGUGGCCUGGAAGUUUGGACUGGGCAGAGCUCAACACAGCGUGGCGAAGUGGCUGUGGCUAGACUGCCUCUCUGGAUUCCUCGUCACUCAGCAGGGCAUCUCUGAGAGAAAUGCC [G34U A77G] showed a self-cleavage of 2.2.
In the case of UACGUAGGUGGUUUUCCCCUGAUAGUGCUAAGGUGGCCUGGAAGUUUGGACUGGGCAGAGCUCAACACAGCGUGGCAAAGUGGCUGUGGCUAGACUGCCUCUCUGGAUUCCUCGUCACUCAGCAGGGCAUCUCUGAGUGAAAUGCC [G34U A138U], the self-cleavage is reported as 1.19.
With UACGUAGGUGGUUUUCCCCUGAUAGUGCUAAGGUGGCCUGGAAGUUUGGACUGGGCAGAGCUCAACACAGCGUGGCAAAGUGGCUGUGGCUAGACUGCCUCUCUGGAUUCCUCGUCACUCAGCAGGGCAUCUCUGAGGGAAAUGCC [G34U A138G] the self-cleavage was 1.56.
UACGUAGGUGGUUUUCCCCUGAUAGUGCUAAGGUGGCCUGGAAGUUUGGACUGGGCAGAGCUCAACACAGCGUGGCAAAGUGGCUGUGGCUAGACUGCCUCUCUGGAUUCCUCGUUACUCAGCAGGGCAUCUCUGAGAGAAAUGCC [G34U C116U] gave a self-cleavage of 1.46.
Work on UACGUAGGUGGUUUUCCCCUGAUAGUGCUAAGGUGGCCUGGAAGUUUGGACUGGGCAGAGCUCAACACAGCGUGGCAAAGUGGCUGUGGCUAGACUGCCUCUCUGGAUUCCUCGUCACUCAGCAGGGCAUCUCUGAGAGAAAUGCC [G34U] yielded a self-cleavage of 1.43.
UACGUAGGUGGUUUUCCCCUGAUAGUGCUAAGGUGGCCUGGAAGUUUGGACUGGGCAGAGCUCAACACAGCGUGGCAAAGUGGCUGUGGCUAGACUGCCUCUCUGGAUUCCUCGUCGCUCAGCAGGGCAUCUCUGAGAGAAAUGCC [G34U A117G] gave a self-cleavage of 2.
UACGUAGGUGGUUUUCCCCUGAUAGUGCUAAGGUGGCCUGGAAGUUUGGACUGGGCAGAGCUCAACACAGCGUGGCAAAGUGGCUGUGGCUAGACUGCCUCUCUGGUUUCCUCGUCACUCAGCAGGGCAUCUCUGAGAGAAAUGCC [G34U A107U] showed a self-cleavage of 1.96.
Variant UACGUAGGUGGUUUUCCCCUGAUAGUGCUAAGGUGGCCUGGAAGUUUGGACUGGGCAGAGCUCAACACAGCGUGGCAAAGUGGCUGUGGCUAGACUGCCUCUCUGGAUUCCUCGUCACUCAGCAGGGCGUCUCUGAGAGAAAUGCC [G34U A129G] has a self-cleavage of 1.98.
